Experimental data published in patent publication US20230348603A1 (VERSEAU THERAPEUTICS, published 2023).

T1: Human VSIG4-L-His (human, UniProt Q9Y279 20-283)
T1 construct: long isoform ECD with His tag; also called hVSIG4-L
T1 sequence: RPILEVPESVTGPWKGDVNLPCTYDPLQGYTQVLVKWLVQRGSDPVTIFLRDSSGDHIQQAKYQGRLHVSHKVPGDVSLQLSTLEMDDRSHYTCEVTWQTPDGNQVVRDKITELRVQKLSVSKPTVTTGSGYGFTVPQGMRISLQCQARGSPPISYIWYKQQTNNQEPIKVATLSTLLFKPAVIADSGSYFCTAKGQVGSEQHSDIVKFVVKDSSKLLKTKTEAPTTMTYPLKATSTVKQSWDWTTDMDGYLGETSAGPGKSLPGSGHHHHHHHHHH

T2: Cynomolgus Monkey VSIG4-L-His (cynomolgus monkey)
T2 construct: ECD with His tag; also called cyVSIG4-L; cyno VSIG4-L-His
T2 chain: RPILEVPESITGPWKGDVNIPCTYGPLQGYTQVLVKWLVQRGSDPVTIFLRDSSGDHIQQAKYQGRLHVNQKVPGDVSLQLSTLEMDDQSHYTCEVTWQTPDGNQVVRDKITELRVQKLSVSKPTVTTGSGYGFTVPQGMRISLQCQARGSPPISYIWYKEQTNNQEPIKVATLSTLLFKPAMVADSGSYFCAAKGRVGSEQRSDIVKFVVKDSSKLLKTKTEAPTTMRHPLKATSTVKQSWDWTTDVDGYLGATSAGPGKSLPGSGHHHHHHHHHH


Key:
Human VSIG4-L-His = target: T1, Human VSIG4-L-His; experiment: BLI, IgG on AHC sensor, antigen 100 nM
[1] = target: T2, Cynomolgus Monkey VSIG4-L-His; experiment: BLI, IgG on AHC sensor, antigen 100 nM
Human VSIG4-L-Fc [2] = target: T3, Human VSIG4-L-Fc (human); experiment: BLI cross-blocking on hVSIG4-L-Fc, competitor 14C05 first
T3 construct: also called hVSIG4-L-Fc; hVSIG4-L

Human VSIG4-L-Fc [3] = target: T3, Human VSIG4-L-Fc; experiment: BLI cross-blocking on hVSIG4-L-Fc, competitor 12A12 first

| KD relative to parental chimera (Human VSIG4-L-His) [fold] | KD relative to parental chimera [1] [fold] | binding signal (nm shift) (Human VSIG4-L-Fc [2]) [nm] | binding signal (nm shift) (Human VSIG4-L-Fc [3]) [nm] | Binder |
| --- | --- | --- | --- | --- |
| 1.7 | 1.1 |  |  | h16E10.C humanized IgG4 (S228P) kappa (antibody, V domains shown) VH: QVQLVQSGAEVKKPGASVKVSCKASGYTFTNYWLGWVRQAPGQGLEWMGDIYPGGGYTNYNEKFQGRVTMTADTSTSTAYMELSSLRSEDTAVYYCAKFYYYGSSYYFDSWGQGTTVTVSS VL: DIVMTQSPDSLAVSLGERATINCKSSQSLLNSGNQENYLAWYQQKPGQPPKLLIYGASTRESGVPDRFSGSGSGTDFTLTISSLQAEDVAVYYCQNDHSYPLTFGGGTKLEIKR |
|  |  | 0.12 | 0.07 | 5D2.C8 mouse/human chimeric IgG4 (S228P) kappa (antibody, V domains shown) VH: EVKLVESGGGLVKPGGSLKLSCAVSGFTFSNSAMSWVRQTPAKRLEWVAYISISGDNTYYPDSVKGRFTISRDNAKNTLYLQMSSLRSEDTAMYYCARRGYDYDGFTHWGQGTLVTVSA VL: DILLTQSPAILSVSPGERVSFSCRASQNIGTSIHWYQQRTNGSPRLLIKYASQSISGIPSRFSGSGSGTDFTLSINSVESEDIADYYCQQSYSWPLTFGTGTQLELKR |
|  |  | 0.13 | 0.08 | 1H7.C7 mouse/human chimeric IgG4 (S228P) kappa (antibody, V domains shown) VH: EVQLVESGGGLVMPGGSRRLSCAASGFTFSDSGMYWVRQAPEKGLEWIAYISSGSDTLYYAATVKGRFTISRDNAKNTLFLQMTSLRSEDTAIYYCAKRNFYGYDVMDYWGQGTSVTVSS VL: DIVMTQSHKFMSTSVGDRVSITCKASQDVSNVVAWYQQKPGQSPKLLIYSASYRYTGVPDRFAGSGSGTDFTFTISSVQAEDLAVYYCQQHYSTPWTFGGGTKLEIKR |
|  |  | 0.14 | 0.1 | 9A10.C4 mouse/human chimeric IgG4 (S228P) kappa (antibody, V domains shown) VH: EVQLVESGGALVQPGGSLKLSCVASGFSFSNCVMSWVRQSPEKRLEWVATIGSDGSYSYYQDNVKGRFTVSRDNAKNTLYLQMSSLGSEDTALYYCGRHIYGYDVVDYWGQGTSLTVSS VL: DIVMTQSHKFMSTSVGDRVTITCKASQDVSNVVAWFQQKPGQSPKLLIYSASYRFGGVPDRFTGSGSGTDFTFTISSVQAEDLAVYYCQQHYDTPLTFGTGTTLELKR |
|  |  | 0.29 | 0.3 | EU103.2 anti-VSIG4 antibody, human IgG4 (S228P) kappa (antibody, V domains shown, variable regions from U.S. Pat. Publ) VH: QVQLQESGPGLVKPSQTLSLTCSFSGISLTTSGMGVGWIRQPPGKGLEWLADIFWDDNKYYNPSLKSRVTISVDTSKNQFSLKLSSVTAADTAVYYCVRVYYKNDGYFDVWGQGTLVTVSS VL: EIVMTQSPATLSVSPGERATLSCRASKSVTTSGYSFMHWYQQKPGQAPRLLIYLASNLEPGIPARFSGSGSGTEFTLTISSLQSEDFAVYYCQHSRELPYTFGQGTKLEIKR |
| 0.6 | 1.1 |  |  | h16E10.D humanized IgG4 (S228P) kappa (antibody) heavy: not shown light: DIVLTQSPLSLPVTPGEPASISCRSSQSLLNSGNQENYLAWYLQKPGQSPQLLIYGASTRESGVPDRFSGSGSGTDFTLKISRVEAEDVGVYYCQNDHSYPLTFGGGTKLEIKRTVAAPSVFIFPPSDEQLKSGTASVVCLLNNFYPREAKVQWKVDNALQSGNSQESVTEQDSKDSTYSLSSTLTLSKADYEKHKVYACEVTHQGLSSPVTKSFNRGEC |
| 0.7 | 1 |  |  | h16E10.F humanized IgG4 (S228P) kappa (antibody) heavy: not shown light: DIVMTQSPLSLPVTPGEPASISCRSSQSLLNSGNQENYLAWYLQKPGQSPQLLIYGASTRESGVPDRFSGSGSGTDFTLKISRVEAEDVGVYYCQNDHSYPLTFGGGTKLEIKRTVAAPSVFIFPPSDEQLKSGTASVVCLLNNFYPREAKVQWKVDNALQSGNSQESVTEQDSKDSTYSLSSTLTLSKADYEKHKVYACEVTHQGLSSPVTKSFNRGEC |
| 0.8 | 1.3 |  |  | h16E10.E humanized IgG4 (S228P) kappa (antibody) heavy: not shown light: DIVLTQSPLSLPVTPGEPASISCRSSQSLLNSGNQENYLAWYLQKPGQSPQLLIYGASTRESGVPDRFSGSGSGTDFTLKISRVEAEDVGVYYCQNDHSYPLTFGGGTKLEIKRTVAAPSVFIFPPSDEQLKSGTASVVCLLNNFYPREAKVQWKVDNALQSGNSQESVTEQDSKDSTYSLSSTLTLSKADYEKHKVYACEVTHQGLSSPVTKSFNRGEC |
| 0.9 | 0.4 |  |  | h16E10.G humanized IgG4 (S228P) kappa (antibody) heavy: not shown light: DIVMTQSPLSLPVTPGEPASISCRSSQSLLNSGNQENYLAWYLQKPGQSPQLLIYGASTRESGVPDRFSGSGSGTDFTLKISRVEAEDVGVYYCQNDHSYPLTFGGGTKLEIKRTVAAPSVFIFPPSDEQLKSGTASVVCLLNNFYPREAKVQWKVDNALQSGNSQESVTEQDSKDSTYSLSSTLTLSKADYEKHKVYACEVTHQGLSSPVTKSFNRGEC |
|  |  | 0.59 | 0.08 | 1C6.D6 mouse/human chimeric IgG4 (S228P) kappa (antibody, V domains shown, also called 1C6.D6b) VH: QVQLQQPGAEMVRPGTSVKLSCKASGYTFTSYWMHWVKQRPGQGLEWIGKIDPSHNKTHYIQKFEDKATLTVDKSSSTAYMHLNSLTSEDSAVYYCVTWDGDFLYWGQGTLVTVSA VL: NIVLTQSPASLTVSLGQRATISCRASESVDSYGNSFMHWYQQKPGQPPKLLIYITSNLQSGVPARFSGGGSRTDFTLTIDPVEADDAATYYCQQNNEDPWTFGGGTKLEIKR |
|  |  | 0.56 | 0.09 | 16F6.E1 mouse/human chimeric IgG4 (S228P) kappa (antibody, V domains shown) VH: QVQLQQPGAEMVRPGASLKLSCKASGYTFTSYWMHWVKQRPGQGLEWIGKIDPSKNTTHYNQNFRDKATLTVDRSSSTAYMQLNSLTSEDSAVYFCVTWDGDFTYWGQGTLVTISA VL: NIVLTQSPPSLAVSLGQRATISCRASESVDSYGNSFMHWYQQKPGQPPKLLIYLASNLESGVPARFSGSGSRTDFTLTIDPVEADDAATYFCHQNNEDPWTFGGGTKLEIKR |
|  |  | 0.15 | 0.1 | 14F8.H6 mouse/human chimeric IgG4 (S228P) kappa (antibody, V domains shown) VH: EVHLVESGGALVKPGGSLKLSCTASGFTFSNSVMSWIRQTPEKRLEWVATIGSGGTYIYYPDSVKGRFTISRDNSKNTLFLQMTSLRSEDTALYYCARHIYGYDVVDYWGQGTTLTVST VL: DIVMTQSHRFMSTSVGDRVSITCKASHDVSNVVAWYQQKPGQSPELLIYSASYRYTGVPARFTGSGSGTDFTFTISSVQAEDLAVYFCQQHFTTPLTFGAGTSLEVRR |
|  |  | 0.55 | 0.57 | A1 anti-VSIG4 antibody, human IgG4 (S228P) kappa (antibody, V domains shown, variable regions from U.S. Pat. Publ) VH: QVTLKESGPTLVKPTQTLTLTCTFSGISLTTSGMGVGWIRQPPGKALEWLADIFWDDNKYYNPSLKSRLTITKDTSKNQVVLTMTNMDPVDTATYYCVRVYYKNDGYFDVWGKGTTVTVSS VL: DIVLTQSPLSLPVTLGQPASISCRASKSVTTSGYSFMHWYQQRPGQSPRLLIYLASNLEPGVPDRFSGSGSGTDFTLKISRVEAEDVGVYYCQQSGELPYTFGQGTKLEIKR |
|  |  | 0.57 | 0.6 | A2 anti-VSIG4 antibody, human IgG4 (S228P) kappa (antibody, V domains shown, variable regions from U.S. Pat. Publ) VH: QVTLKESGPTLVKPTQTLTLTCTFSGISLTTSGMGVGWIRQPPGKALEWLADIFWDDNKYYNPSLKSRLTITKDTSKNQVVLTMTNMDPVDTATYYCVRVYYKNDGYFDVWGKGTTVTVSS VL: DIVLTQSPLSLPVTLGQPASISCRASKSVTTSGYSFMHWYQQRPGQSPRLLIYLASNLEPGVPDRFSGSGSGTDFTLKIFRVEAEDVGVYYCQQSGELPYTFGQGTKLEIKR |
|  |  | 0.24 | 0.07 | 13E11.A4 mouse/human chimeric IgG4 (S228P) kappa (antibody) heavy: not shown light: DIVMTQSHKFMSTSVGDNVSITCKASQYVSNTVAWYQQKPGQSPKLLIYSASYRNTGVPDRFTGSGSGTNFTFTISNMQAEDLAFYYCQQHYTSPLTFGAGTKLELKRTVAAPSVFIFPPSDEQLKSGTASVVCLLNNFYPREAKVQWKVDNALQSGNSQESVTEQDSKDSTYSLSSTLTLSKADYEKHKVYACEVTHQGLSSPVTKSFNRGEC |
|  |  | 0.11 | 0.06 | 10E8.B6 mouse/human chimeric IgG4 (S228P) kappa (antibody, V domains shown) VH: EVQLQQSGPELMKPGDSVKMSCKASGYTFTDYYMDWVKQSHGKSLEWIGYIYPNIDFTTYNQKFKGKATLTVDKSSNTAYMELHSLTSEDSAVYYCTRRDLPLHGSAYYFDYWGQGTTLTVSS VL: DIVMSQSPSSLAVSAGEKVTMSCKSSQSLLNSRTRKNYLAWYQQKPGQSPKLLIYWASTRESGVPDRFTGSGSGTDFTLTISSVQAEDLAVYYCKQSYDLFTFGSGTKLEIKR |
